Assay results: the supplement of paper PMC10724198
± gives the standard deviation of the averaged measurements.

System: Saccharomyces cerevisiae
Assay: protein stability index of tFT-peptide fusion (C-terminal peptide) (PSI (0-1 scale)); higher = more stable (slower turnover)
Settings: temperature: 30 C
Method: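 MPS profiling in S. cerevisiae of the yeast C-terminome library: the last 12 aa of each annotated ORF are fused to the C-terminus of a sfGFP-mCherry timer, after a GGGS linker. Cells are FACS-sorted into 8 mCherry/sfGFP bins and deep-sequenced. PSI runs from 0 (unstable) to 1 (stable); wild type and das1Δ backgrounds, two technical replicates each.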

[1] = genetic background: das1 deletion

Row | Sequence | protein stability index [1] | protein stability index (genetic background: wild type)
1 | IWKKVPETKRSG [VPS73 C-terminal 12 aa] | 0.707 ± 0.019 | 0.669 ± 0.022
2 | IYSVTKKRNTRI [RSF2 C-terminal 12 aa] | 0.725 ± 0.026 | 0.693 ± 0.092
3 | IYYKSQNWRREC [YBR219C C-terminal 12 aa] | 0.707 ± 0.045 | 0.169 ± 0.0069
4 | KAEASEAAHDEL [CPR5 C-terminal 12 aa] | 0.695 ± 0.0055 | 0.676 ± 0.038
5 | KAGREELERVNV [QCR8 C-terminal 12 aa] | 0.688 ± 0.026 | 0.685 ± 0.015
6 | KAINFDEDVLNL [VID30 C-terminal 12 aa] | 0.66 ± 0.017 | 0.748 ± 0.02
7 | KALQKAMGSVQF [YEL1 C-terminal 12 aa] | 0.702 ± 0.018 | 0.687 ± 0.03
8 | KARIVVAKSGEL [CPR1 C-terminal 12 aa] | 0.686 ± 0.018 | 0.645 ± 0.015
9 | KCLDLLKTELGE [POC4 C-terminal 12 aa] | 0.699 ± 0.018 | 0.6935 ± 0.0043
10 | KDSAQSLDDLLM [SFM1 C-terminal 12 aa] | 0.7007 ± 0.0043 | 0.6969 ± 0.0046
11 | KDSKEYFKNANN [TSA2 C-terminal 12 aa] | 0.714 ± 0.022 | 0.716 ± 0.02
12 | KEFKQFEFHNRR [RRP36 C-terminal 12 aa] | 0.729 ± 0.011 | 0.681 ± 0.011
13 | KERSHHFVRNMN [YKL102C C-terminal 12 aa] | 0.707 ± 0.0071 | 0.637 ± 0.048
14 | KERTHLFQLIRK [EFM6 C-terminal 12 aa] | 0.699 ± 0.0076 | 0.6923 ± 0.0018
15 | KEVPLDFDPDRN [ANP1 C-terminal 12 aa] | 0.683 ± 0.037 | 0.688 ± 0.022
16 | KEWKEKEKTGKQ [MPC1 C-terminal 12 aa] | 0.728 ± 0.012 | 0.702 ± 0.022
17 | KFDKPLYERLET [YNR014W C-terminal 12 aa] | 0.6855 ± 0.0028 | 0.651 ± 0.044
18 | KFQDVLDNFLQG [ETT1 C-terminal 12 aa] | 0.713 ± 0.019 | 0.685 ± 0.01
19 | KFSSTSRYMQYN [RPT1 C-terminal 12 aa] | 0.705 ± 0.016 | 0.642 ± 0.017
20 | KGATIKEIVLND [ATH1 C-terminal 12 aa] | 0.69826 ± 0.00054 | 0.672 ± 0.012
21 | KGGRLSSKPIIM [SPT3 C-terminal 12 aa] | 0.683 ± 0.019 | 0.686 ± 0.034

Row | Sequence | protein stability index [1] | protein stability index (genetic background: wild type)
22 | KGVFWDPACVIA [MFA1 C-terminal 12 aa] | 0.731 ± 0.0082 | 0.713 ± 0.031
23 | KHCPYVFIPYVF [ERG4 C-terminal 12 aa] | 0.5262 ± 0.00096 | 0.273 ± 0.0033
24 | KHGLNDWIVGQK [YPL225W C-terminal 12 aa] | 0.712 ± 0.021 | 0.745 ± 0.035
25 | KHKNILFFNHNT [YJR162C C-terminal 12 aa] | 0.725 ± 0.015 | 0.199 ± 0.0036
26 | KHKNILSFNDNT [YER188C-A C-terminal 12 aa] | 0.731 ± 0.015 | 0.747 ± 0.068
27 | KHKQYFWKRPTK [PLM2 C-terminal 12 aa] | 0.714 ± 0.015 | 0.692 ± 0.019
28 | KHVGKGCGYSYH [STP4 C-terminal 12 aa] | 0.696 ± 0.024 | 0.6985 ± 0.0052
29 | KILDEINLDRIK [HEM3 C-terminal 12 aa] | 0.689 ± 0.0094 | 0.681 ± 0.052
30 | KILTQHLQDLQS [RKM2 C-terminal 12 aa] | 0.6934 ± 0.0063 | 0.714 ± 0.077
31 | KIQWDIDPQLDG [SSY5 C-terminal 12 aa] | 0.743 ± 0.033 | 0.723 ± 0.082
32 | KIVSGLVRTNSS [YIL060W C-terminal 12 aa] | 0.703 ± 0.019 | 0.717 ± 0.024
33 | KKARKMPTWVKR [MRPS9 C-terminal 12 aa] | 0.693 ± 0.032 | 0.65752 ± 7.3e-05
34 | KKKLVKKTKSKK [RIO1 C-terminal 12 aa] | 0.739 ± 0.01 | 0.705 ± 0.081
35 | KKKQNDGKSLRS [DBP8 C-terminal 12 aa] | 0.687 ± 0.013 | 0.732 ± 0.0081
36 | KLAKPAPTSKLD [TDA4 C-terminal 12 aa] | 0.6901 ± 0.0021 | 0.692 ± 0.025
37 | KLIHIPIRYVIV [SSS1 C-terminal 12 aa] | 0.424 ± 0.03 | 0.3647 ± 0.00092
38 | KLQPQVYKPWSL [RSC8 C-terminal 12 aa] | 0.6842 ± 0.0019 | 0.703 ± 0.0092
39 | KNHDFKDCADIF [SWH1 C-terminal 12 aa] | 0.721 ± 0.017 | 0.688 ± 0.043
40 | KNIPEKFKNGIF [SSP120 C-terminal 12 aa] | 0.729 ± 0.036 | 0.647 ± 0.0098
41 | KNLQNELEKNNA [RTN1 C-terminal 12 aa] | 0.6887 ± 0.0022 | 0.6647 ± 0.0021
